Laboratory results taken from publication PMC2151650.

Molecular target: triadin (rabbit) (UniProt Q28820)
Assay: co-IP

Sequence of triadin (rabbit) (Q28820 whole entry): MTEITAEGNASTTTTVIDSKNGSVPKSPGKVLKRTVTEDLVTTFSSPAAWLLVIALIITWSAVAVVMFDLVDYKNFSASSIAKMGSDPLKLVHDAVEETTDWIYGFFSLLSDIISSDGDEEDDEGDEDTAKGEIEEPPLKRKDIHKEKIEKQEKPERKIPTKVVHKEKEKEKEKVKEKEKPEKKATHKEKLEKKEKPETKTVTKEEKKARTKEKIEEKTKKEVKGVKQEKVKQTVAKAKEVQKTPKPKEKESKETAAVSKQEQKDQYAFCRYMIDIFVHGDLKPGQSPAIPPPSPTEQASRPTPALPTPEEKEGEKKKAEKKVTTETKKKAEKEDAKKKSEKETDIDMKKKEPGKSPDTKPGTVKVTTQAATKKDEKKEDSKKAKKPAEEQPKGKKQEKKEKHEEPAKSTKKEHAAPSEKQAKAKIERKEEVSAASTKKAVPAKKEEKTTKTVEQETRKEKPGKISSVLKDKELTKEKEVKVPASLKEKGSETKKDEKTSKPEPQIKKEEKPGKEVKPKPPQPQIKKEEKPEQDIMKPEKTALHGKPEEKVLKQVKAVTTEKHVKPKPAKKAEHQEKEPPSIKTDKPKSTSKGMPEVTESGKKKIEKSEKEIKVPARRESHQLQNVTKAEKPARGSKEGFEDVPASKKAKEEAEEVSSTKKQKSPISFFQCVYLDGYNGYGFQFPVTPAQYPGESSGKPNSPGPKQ

percent reduction in triadin binding against WT RyR1: 50%
Substance: RyR1 D4878A/D4907A, P11716 1-5037 (natural protein)
